B1: native mVDAC1 (mouse VDAC1), purified recombinant (other)
chain: MAVPPTYADLGKSARDVFTKGYGFGLIKLDLKTKSENGLEFTSSGSANTETTKVNGSLETKYRWTEYGLTFTEKWNTDNTLGTEITVEDQLARGLKLTFDSSFSPNTGKKNAKIKTGYKREHINLGCDVDFDIAGPSIRGALVLGYEGWLAGYQMNFETSKSRVTQSNFAVGYKTDEFQLHTNVNDGTEFGGSIYQKVNKKLETAVNLAWTAGNSNTRFGIAAKYQVDPDACFSAKVNNSSLIGLGYTQTLKPGIKLTLSALLDGKNVNAGGHKLGLGLEFQA
notes: Extracted from mitochondria of yeast expressing mVDAC1, purified and reconstituted into a planar lipid bilayer; also called native VDAC1
B2: Peptide LP1 (VDAC1 loop 1 peptide) (peptide)
peptide: WTEYGLTFTEKWNTD
notes: No CPP or Trp zipper in these assays; also called LP1 peptide

Key:
[1] = target: T1, Rat brain HK-I (hexokinase-I), purified (rat, UniProt P05708 1-918); test: purified proteins, VDAC1 reconstituted into a planar lipid bilayer, channel recording
T1 construct: Purified from rat brain; Used in the planar lipid bilayer and isolated-mitochondria assays
T1 sequence (looked up): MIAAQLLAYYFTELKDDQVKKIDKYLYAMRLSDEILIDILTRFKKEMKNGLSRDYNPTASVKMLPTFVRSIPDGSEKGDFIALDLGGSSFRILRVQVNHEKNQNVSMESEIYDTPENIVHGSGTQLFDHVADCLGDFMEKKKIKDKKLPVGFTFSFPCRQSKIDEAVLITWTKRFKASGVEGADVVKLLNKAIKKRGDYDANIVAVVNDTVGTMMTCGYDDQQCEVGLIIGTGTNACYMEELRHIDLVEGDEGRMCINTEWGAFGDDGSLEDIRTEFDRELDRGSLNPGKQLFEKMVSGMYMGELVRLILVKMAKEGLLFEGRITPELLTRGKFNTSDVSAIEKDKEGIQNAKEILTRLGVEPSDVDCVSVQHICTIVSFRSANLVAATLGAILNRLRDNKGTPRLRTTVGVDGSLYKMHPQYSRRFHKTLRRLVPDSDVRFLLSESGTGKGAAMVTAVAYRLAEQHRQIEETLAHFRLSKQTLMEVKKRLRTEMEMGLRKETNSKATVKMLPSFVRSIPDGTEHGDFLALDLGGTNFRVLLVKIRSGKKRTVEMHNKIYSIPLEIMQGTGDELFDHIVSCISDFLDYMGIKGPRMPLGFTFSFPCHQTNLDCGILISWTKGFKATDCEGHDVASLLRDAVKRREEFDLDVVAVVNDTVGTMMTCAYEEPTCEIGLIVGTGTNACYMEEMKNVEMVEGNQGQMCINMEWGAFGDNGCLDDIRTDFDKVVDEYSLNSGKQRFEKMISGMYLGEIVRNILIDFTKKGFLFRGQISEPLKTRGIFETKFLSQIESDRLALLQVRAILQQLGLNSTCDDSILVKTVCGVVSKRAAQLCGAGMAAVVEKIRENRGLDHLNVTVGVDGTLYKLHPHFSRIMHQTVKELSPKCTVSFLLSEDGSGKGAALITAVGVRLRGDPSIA
Protocol: Only PLBs with a resistance greater than 100 GΩ were used. Purified VDAC (about 1 ng) was added to the chamber defined as the cis side. […] Sigma Plot 2000 scientific software was used for data analyses. Experiments were performed at 23-25° C.

[2] = target: T1, Rat brain HK-I (hexokinase-I), purified; test: detachment of HK-I from rat brain mitochondria by the peptide (competition); HK-I activity in the supernatant

Binder | binding result [1] | binding result [2]
B1 | binds | 
B2 |  | binds

Reference: patent US20120214741A1 (BEN GURION UNIVERSITY OF THE NEGEV RESEARCH AND DEVELOPMENT …, published 2012)
